In paper PMC11760725:

Key:
[1] = biological target: T1, Reb1 (Saccharomyces cerevisiae) (UniProt P21538); experiment: ensemble FRET
T1 sequence: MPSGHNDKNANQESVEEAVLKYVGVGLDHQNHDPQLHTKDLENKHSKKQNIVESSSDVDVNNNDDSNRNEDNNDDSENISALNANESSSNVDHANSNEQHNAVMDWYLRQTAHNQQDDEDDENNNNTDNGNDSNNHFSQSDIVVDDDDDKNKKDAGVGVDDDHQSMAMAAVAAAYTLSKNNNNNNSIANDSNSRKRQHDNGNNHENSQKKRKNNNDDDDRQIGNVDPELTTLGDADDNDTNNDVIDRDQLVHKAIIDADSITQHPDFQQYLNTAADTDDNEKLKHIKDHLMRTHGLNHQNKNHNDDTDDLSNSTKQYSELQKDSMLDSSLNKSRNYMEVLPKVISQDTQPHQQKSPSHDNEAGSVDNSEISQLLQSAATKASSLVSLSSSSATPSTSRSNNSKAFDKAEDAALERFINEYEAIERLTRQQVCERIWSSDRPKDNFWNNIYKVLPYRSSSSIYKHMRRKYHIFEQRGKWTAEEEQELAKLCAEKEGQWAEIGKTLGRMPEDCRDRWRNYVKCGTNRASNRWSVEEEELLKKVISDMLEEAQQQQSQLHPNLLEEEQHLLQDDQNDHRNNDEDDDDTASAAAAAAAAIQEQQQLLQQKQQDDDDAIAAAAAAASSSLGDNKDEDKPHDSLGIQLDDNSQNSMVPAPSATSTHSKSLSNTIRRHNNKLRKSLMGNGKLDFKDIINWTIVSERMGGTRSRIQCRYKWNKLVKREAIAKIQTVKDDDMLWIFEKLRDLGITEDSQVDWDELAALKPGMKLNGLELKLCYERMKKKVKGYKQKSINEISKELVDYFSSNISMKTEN

[2] = biological target: Cbf1 (Saccharomyces cerevisiae) (UniProt P17106); experiment: EMSA
[3] = biological target: Cbf1 (Saccharomyces cerevisiae) (UniProt P17106); experiment: ensemble FRET

Chain of UniProt P17106 (P17106 whole entry): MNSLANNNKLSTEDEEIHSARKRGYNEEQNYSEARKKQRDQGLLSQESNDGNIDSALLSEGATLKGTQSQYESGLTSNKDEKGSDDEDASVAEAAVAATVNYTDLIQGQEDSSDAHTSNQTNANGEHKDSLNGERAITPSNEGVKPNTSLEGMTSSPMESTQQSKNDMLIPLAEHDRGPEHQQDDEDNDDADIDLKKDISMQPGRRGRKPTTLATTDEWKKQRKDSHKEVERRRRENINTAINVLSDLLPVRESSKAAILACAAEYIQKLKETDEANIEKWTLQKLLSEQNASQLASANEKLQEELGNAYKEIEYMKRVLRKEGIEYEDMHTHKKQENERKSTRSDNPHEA

Substance	K half [1] [nM]	K half [2] [nM]	K half [3] [nM]
601 Reb1p8 Cy3-proximal 207 bp nucleosome	0.75		
GCTTTGACCGGGTAACACGAACAGAAAGATGGAGGAGACCAATCAGTCAGTGAATCAGATGCTGATGAAGGCTGGGAAGATATTCCTGTCTACGTTAAAGCCTTTGCAGAGTTTGAATCAAAGAAAAGATTACAAAAAATTCGCCGACAGGAAGAAATAAAAAAGAGGACAGCTTTGGTTTGAAGCAAATATATATTATTGAAAAGC (double strand) [YNN1 Reb1p8 Cy3-proximal 207 bp nucleosome]	1.5		
GCTTTGAGGTCACGTGACCAACAGAAAGATGGAGGAGACCAATCAGTCAGTGAATCAGATGCTGATGAAGGCTGGGAAGATATTCCTGTCTACGTTAAAGCCTTTGCAGAGTTTGAATCAAAGAAAAGATTACAAAAAATTCGCCGACAGGAAGAAATAAAAAAGAGGACAGCTTTGGTTTGAAGCAAATATATATTATTGAAAAGC (double strand) [YNN1 Cbf1p8 nucleosome]		0.8	1.5
